# Assay: yeast display, Sf9 membrane polyspecificity reagent, FACS + sequencing; frameworks hold sequencing errors
# How it was run: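 Sorting gates, low and high (top ~1%), were placed on anti-HA fluorescence to track expression and on streptavidin fluorescence to track reagent binding. A clone's polyreactivity label is taken from the gate it came out of. The reagent was 10% biotinylated, detergent-solubilized Sf9 membrane, applied for 1 hour at 4 °C to galactose-induced yeast display cells.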
row,Sequence,polyreactivity (PSR sort gate)
1,QVQLVESGGGLVQAGGSLRLSCAASGSTFSPYAMGWYRQAPGKERELVADISWPGGTTYYADSVKGRFTISRDNAKNTVYLQMNSLKPEDTAVYYCAVTYWDYTFQITYEYWGQGSQVTVSS,low polyreactivity
2,QVQLVESGGGLVQAGGSLRLSCAASGSTFSPYAMGWYRQAPGKERELVANITISGGSTYYADSVKGRFTISRDTAKNTVYLQMNSLKPEDTAVYYCNADSLIRWLFTVVILDYWGQGTLVTVSS,low polyreactivity
3,QVQLVESGGGLVQAGGSLRLSCAASGSTFSPYGMGWYRQAPGKERELVAAIRGRGGNTYYADSVKGRFTISRDNAKNTVYLQMNSLKPEDTAVYYCAAQSFAQYGWRYGDWGQGTQVTVSS,high polyreactivity
4,QVQLVESGGGLVQAGGSLRLSCAASGSTFSPYTMGWYRQAPGKERELVAAITWSGVTTYYADSVKGRFTISRDNAKNTVYLQMNSLKPEDSAVYYCAAGRTRRKFDYWGQGTQVTVSS,low polyreactivity
5,QVQLVESGGGLVQAGGSLRLSCAASGSTFSRYAMGWYRQAPGKERELVAAISSSGGSTYYADSVKGRFTISRDNAKNTVYLQMNSLKPEDTAVYYCAVAVNGVSRIKYYYWGQGTQVTVSS,high polyreactivity
6,QVQLVESGGGLVQAGGSLRLSCAASGSTFSRYAMGWYRQAPGKERELVAAISWRGGRTYYADSVKGRFTISRDNAKNTVYLPMNSLKPEDTAVYYCNAVSSFTSPRYAYWGQGTQVTVSS,high polyreactivity
7,QVQLVESGGGLVQAGGSLRLSCAASGSTFSRYAMGWYRQAPGKEREMVAAINTRGGSTYYADSVKGRFTISRDNSKNTVYLQMNSLKPEDTAVYYCARRFYGFGPYYPFDYWGQGTQVTVSS,low polyreactivity
8,QVQLVESGGGLVQAGGSLRLSCAASGSTFSRYTMGWYRQAPGKERELVAAIRRSGASTYYADSVKGRFTISRDNAKITVYLQMNSLKPEDTAVYYCAVGRYRYGYWGHGTQVTVSS,high polyreactivity
9,QVQLVESGGGLVQAGGSLRLSCAASGSTFSSNAMGWYRQAPGKERELVAAITGSGGSTYYADSVKGRFTISRDNAKNTVYLQMNSLKPEDTAVYYCAAKWYGITYKYEYWGQGTQVTVSS,high polyreactivity
10,QVQLVESGGGLVQAGGSLRLSCAASGSTFSSNTMGWYRQAPGKERELVAAITTGGDTYYADSVKGRFTISRDNAKNTVYLQMNSLKPEDTAVYYCAATPTYWYLWSPYDYWGQGTQVTVSS,low polyreactivity
11,QVQLVESGGGLVQAGGSLRLSCAASGSTFSSNTMGWYRQAPGKEREMVAAITRRGGSTYYADSVKGRFTISRDNAKNTVYLQMNCLKPEDTAVYYCAARAYGGYGYWGQGTQVPVSS,low polyreactivity
12,QVQLVESGGGLVQAGGSLRLSCAASGSTFSSNVMGWYRQAPGKERELVAAITGSGSRTYYADSVKGRFTISRDNAKNTVYLQMNSLKPEDTAVYYCNTKGRSRETYGYDYWGQGTQVTVSS,high polyreactivity
13,QVQLVESGGGLVQAGGSLRLSCAASGSTFSSYAMGWYRQAPGKDRELVAAISSRGGRTYYADSVKGRFTISRDNAKNTVYLQMNSLKPEDTAVYYCNAPTSALRQGKDYGYWGQGTQVTVSS,high polyreactivity
14,QVQLVESGGGLVQAGGSLRLSCAASGSTFSSYAMGWYRQAPGKERELVAAINWSGGRTYYADSVKGRFTISRDNAKNTVYLQMNSLKPEDTAVYYCAAVGVYTYPYDYWGQGTQVTVSS,high polyreactivity
15,QVQLVESGGGLVQAGGSLRLSCAASGSTFSSYAMGWYRQAPGKERELVAAISTRSGSTYYADSVKGRFTISRDNAKNTVYLQMNSLKPEDTAVYYCAADGFYYDDGYWGQGTQVTVSS,low polyreactivity
16,QVQLVESGGGLVQAGGSLRLSCAASGSTFSSYGMGWYRQAPGKERELVAAISKRGGSTYYADSVKGRFTISRDNAKNTVYLQMNSLKPEDTAVYYCAAAVRKQGYSTLFDYWGQGTQVTVSS,high polyreactivity
17,QVQLVESGGGLVQAGGSLRLSCAASGSTFSSYVMGWDRQARGKERELVAAISSIGGSTYYADSVKGRFTISRDNAKNTVYLQMNSLKPEDTAVYYCAAEPPGSTYEGGYWGQGTQVTVSS,low polyreactivity
18,QVQLVESGGGLVQAGGSLRLSCAASGSTFSTNAMGCYRQAPGKERELVAAISGRGGRTYYADSVKGRFTISRDNAKNTVYLQMTSLKPEDTAVYYCNTDSYLRMDYWGQGTQVTVSS,high polyreactivity
19,QVQLVESGGGLVQAGGSLRLSCAASGSTFSTNAMGWYRQAPGQERELVAAISSSSGRTYYADSVKGRFTISRDNAKNTVYLQMNSLKPEDTAVYYCAAANQGYRSGRKGVQRFDYWGQGTQVTVSS,high polyreactivity
20,QVQLVESGGGLVQAGGSLRLSCAASGSTFSTNFMGWYRQAPGKERELVAAISTIGGSTYADSVKGRFTISRDNAKNTVYLQMNSLKPEDTAVYYCAAVFRVRRKTYGYWGQGTQVTVSS,high polyreactivity
21,QVQLVESGGGLVQAGGSLRLSCAASGSTFSTNVMGWSRQAPGKERELVAAISTIGGSTYADSVKGRFTISRDNAKNSVYLQMNSLKPEDTAVYDCAATRRWYPTKLYGYWGQGTQVTVSS,high polyreactivity

row,Sequence,polyreactivity (PSR sort gate)
1,QVQLVESGGGLVQAGGSLRLSCAASGSTFSTYAMGWSRLAPGKERELVATISKRGGSTYYADSVKGRFTISRDNAKNTVYLQMNSLKPEDTAVYYCAARWQWLNGYYYWGQGTQVTVSS,high polyreactivity
2,QVQLVESGGGLVQAGGSLRLSCAASGSTFSTYAMGWYRQAPGKERELVAAISRTGGSTYYADSVKGRFTISRDNAKNTVYLQMNSLKPEDTAVYYCATGDSGGYDYWGQGTQVTVSS,low polyreactivity
3,QVQLVESGGGLVQAGGSLRLSCAASGSTFSVYAMGWYRQAPGKERELVAAITWSGGSTYYADSVKGRFTISRDNAKNTVYLQMNSLKPEDTAVYYCAARYGRIHWKANWPEYGYWGQGTQVTVSS,low polyreactivity
4,QVQLVESGGGLVQAGGSLRLSCAASGSTFSVYAMGWYRQAPGKERELVADNTRGGSTYADSVKGRFTISRDNAKNTVYLQMNSLKPEDTAVYYCAREEVTPYPLYWSTREYDYWGQGTQVTVSS,low polyreactivity
5,QVQLVESGGGLVQAGGSLRLSCAASGSTFSVYAMGWYRQAPGKERELVATITWNGGRTYYADSVKGRFTISRDNAKNTVYLQMNSLKREDTAVYYCASPWLKPGNGIYGGYGYWGQGTQVTVSS,high polyreactivity
6,QVQLVESGGGLVQAGGSLRLSCAASGSTFSWNTMGWYRQAPGNERELVAAINSGGSTYYADSVKGRFTISRDNAKNTVYLQMNSLIPEDTAVYYCASRTKYYGRFDYWGQGTQVTVSS,low polyreactivity
7,QVQLVESGGGLVQAGGSLRLSCAASGSTFSYNAMGWYIQAPGKERELVAAISWSGGSTYYADSVKGRFTISRDYAKNTVYLQMNSLKPEDTAVYYCAADSPYGYYEGDYWGQGTQVTVSS,low polyreactivity
8,QVQLVESGGGLVQAGGSLRLSCAASGSTFSYNAMGWYRQAPGKERELVAAFSFISGSTYYADSVKGRFTISRDNAKNTVYLQMNSLKPEDTAVYFCAKRYRLRGRYDYWGQGTQVTVSS,high polyreactivity
9,QVQLVESGGGLVQAGGSLRLSCAASGSTFSYNTMGWYRQAPGKERELVATIDFNGGSTYYADSVKGRFTISRDNAKNTVYLQMNSLKPEDTAVYYCNADRYPYWGYDYWGQGTQVTVSS,low polyreactivity
10,QVQLVESGGGLVQAGGSLRLSCAASGSTFSYYALGWYRQAPGKEREFVAAISRSGGRTYYADSVKGRFTFSRDNAKNTVYLQMNSLKPEDTAVYYCATVYYYDFSRTHPWPGDYWGQGTQVTVSS,high polyreactivity
11,QVQLVESGGGLVQAGGSLRLSCAASGSTFSYYAMGGYRQEPGKERELVAAISRGTRTYYADSVKGSFSISRDNAKNTVYLLMNSLKAEDTAVYYCAADLWYTRYYYWGQGTQVTVSS,high polyreactivity
12,QVQLVESGGGLVQAGGSLRLSCAASGSTFSYYAMGWYIQAAGKERELVADITLNGGDTYYADSVKGRFTISRDNAKNTVYLQMNSLKPEDTAVYYCAKDSTADELTGFDYWGQGTQVTVSS,low polyreactivity
13,QVQLVESGGGLVQAGGSLRLSCAASGSTFSYYAMGWYRQAPGKEREFVAAISYSTTSTFYADSVKGRFTISRDNAKNTVYLQMNSLKPEDTAVYYCAARARYSPATYDYWGQGTQVTVSS,high polyreactivity
14,QVQLVESGGGLVQAGGSLRLSCAASGSTFSYYAMGWYRQAPGKEREFVASISWRGGSTYYADSVKGRFTISRDNAKNTVYLQMNRLKPEDTAVYYCAASSRSRWSGYRYDYWGQGTQVTVSS,high polyreactivity
15,QVQLVESGGGLVQAGGSLRLSCAASGSTFSYYAMGWYRQAPGKERELVAAISGRGGSTYYADSVKGRFTISRDNAKNTVYLQMNSLKPEDTAVYYCAKGRLYTAYGLYSWGQGTQVTVSS,high polyreactivity
16,QVQLVESGGGLVQAGGSLRLSCAASGSTFSYYAMGWYRQAPGKERELVAAISSRGGSTYYADSVKGRFTISRDNAKNTVYLQMNSQKPEDTAVYYCNADHQFRSSVSGDHDYWGQGTQVTVSS,high polyreactivity
17,QVQLVESGGGLVQAGGSLRLSCAASGSTFSYYAMGWYRQAPGKERELVAAISWSGGSTYYADSVKGRFTISRDNAKNTVYLQMNSLKPEDTAVYYCAIVTRKTYYVGNGDYWGQGTQVTVSS,high polyreactivity
18,QVQLVESGGGLVQAGGSLRLSCAASGSTFSYYAMGWYRQAPGKERELVAANTSGCRSKYADSVKGRFTISRDNAKNTVYLQINSLKPEDTAVYYCAKRIENFSGSLAGRWYDYWGQGTQVNVSS,high polyreactivity
19,QVQLVESGGGLVQAGGSLRLSCAASGSTFSYYAMGWYRQAPGKERELVADISSGGSTNYADSVKGRFTISRDNAKNTVYLQMNSLKPEDTAVYYCNRRYSYYDGFDYWGQGTQVTLSS,low polyreactivity
20,QVQLVESGGGLVQAGGSLRLSCAASGSTFSYYDMGWYREAPGKERELVAVITTSGVSTYYADSVKGRFTISRDNAKNTVYLQMNSLKPEDTAVYYCNADYGYDSVVEYDYWGQGTQVTVSS,low polyreactivity
